Assays:
[1] = biological target: baboon platelet GPIb (on baboon platelets) (baboon (Papio ursinus)); experiment: GPIb occupancy on baboon platelets, 60 minutes after bolus of 2 mg/kg
[2] = biological target: baboon platelet GPIb (on baboon platelets) (baboon (Papio ursinus)); experiment: GPIb occupancy on baboon platelets, 300 minutes after bolus of 2 mg/kg
[3] = biological target: baboon platelet GPIb (on baboon platelets) (baboon (Papio ursinus)); experiment: GPIb occupancy on baboon platelets, 30 minutes after bolus of 2 mg/kg
[4] = biological target: baboon platelet GPIb (on baboon platelets) (baboon (Papio ursinus)); experiment: GPIb occupancy on baboon platelets, 150 minutes after bolus of 4 mg/kg
[5] = biological target: baboon platelet GPIb (on baboon platelets) (baboon (Papio ursinus)); experiment: GPIb occupancy on baboon platelets, 300 minutes after bolus of 4 mg/kg
[6] = biological target: baboon platelet GPIb (on baboon platelets) (baboon (Papio ursinus)); experiment: GPIb occupancy on baboon platelets, 60 minutes after bolus of 600 µg/kg
[7] = biological target: baboon platelet GPIb (on baboon platelets) (baboon (Papio ursinus)); experiment: GPIb occupancy on baboon platelets, 150 minutes after bolus of 600 µg/kg
[8] = biological target: baboon platelet GPIb (on baboon platelets) (baboon (Papio ursinus)); experiment: GPIb occupancy on baboon platelets, 30 minutes after bolus of 600 µg/kg
[9] = biological target: baboon platelet GPIb (on baboon platelets) (baboon (Papio ursinus)); experiment: GPIb occupancy on baboon platelets, 150 minutes after bolus of 2 mg/kg
[10] = biological target: baboon platelet GPIb (on baboon platelets) (baboon (Papio ursinus)); experiment: 125I-labelled fragment on baboon platelets in plasma
[11] = biological target: baboon platelet GPIb (on baboon platelets) (baboon (Papio ursinus)); experiment: GPIb occupancy on baboon platelets, 60 minutes after bolus of 4 mg/kg
[12] = biological target: baboon platelet GPIb (on baboon platelets) (baboon (Papio ursinus)); experiment: cell-based or functional assay
[13] = biological target: baboon platelet GPIb (on baboon platelets) (baboon (Papio ursinus)); experiment: GPIb occupancy on baboon platelets, 30 minutes after bolus of 4 mg/kg
[14] = biological target: baboon platelet GPIb (on baboon platelets) (baboon (Papio ursinus)); experiment: GPIb occupancy on baboon platelets, 300 minutes after bolus of 600 µg/kg
[15] = biological target: purified human von Willebrand factor (human) (UniProt P04275); experiment: ELISA: inhibition of plasma or purified vWF binding to coated human collagen type I
[16] = biological target: purified human von Willebrand factor (human) (UniProt P04275); experiment: cell-based or functional assay
[17] = biological target: mouse GPIIb/IIIa (on mouse platelets) (mouse) (UniProt Q9QUM0); experiment: receptor occupancy on platelets of mice after 20 µg JON/A F(ab)2 i.v.
[18] = biological target: mouse GPIIb/IIIa (on mouse platelets) (mouse) (UniProt Q9QUM0); experiment: receptor occupancy on platelets of mice after 100 µg JON/A F(ab)2 i.v.
[19] = biological target: mouse GPIIb/IIIa (on mouse platelets) (mouse) (UniProt Q9QUM0); experiment: receptor occupancy on platelets of mice after 10 µg JON/A F(ab)2 i.v.
[20] = biological target: human collagen type I (human) (UniProt P02452); experiment: ex vivo ELISA, baboon plasma vWF on human collagen type I, % of pre-sample; 82D6A3 600 µg/kg group, 0 min
[21] = biological target: human collagen type I (human) (UniProt P02452); experiment: ex vivo ELISA, baboon plasma vWF on human collagen type I, % of pre-sample; 82D6A3 300 µg/kg, 150 min
[22] = biological target: human collagen type I (human) (UniProt P02452); experiment: ex vivo ELISA, baboon plasma vWF on human collagen type I, % of pre-sample; 82D6A3 600 µg/kg, 150 min
[23] = biological target: human collagen type I (human) (UniProt P02452); experiment: ex vivo ELISA, baboon plasma vWF on human collagen type I, % of pre-sample; 82D6A3 300 µg/kg, 300 min
[24] = biological target: human collagen type I (human) (UniProt P02452); experiment: ex vivo ELISA, baboon plasma vWF on human collagen type I, % of pre-sample; 82D6A3 600 µg/kg, 300 min
[25] = biological target: human collagen type I (human) (UniProt P02452); experiment: ex vivo ELISA, baboon plasma vWF on human collagen type I, % of pre-sample; 82D6A3 600 µg/kg, 30 min
[26] = biological target: human collagen type I (human) (UniProt P02452); experiment: ex vivo ELISA, baboon plasma vWF on human collagen type I, % of pre-sample; 82D6A3 300 µg/kg group, 0 min
[27] = biological target: human collagen type I (human) (UniProt P02452); experiment: ex vivo ELISA, baboon plasma vWF on human collagen type I, % of pre-sample; 82D6A3 300 µg/kg, 48 h
[28] = biological target: human collagen type I (human) (UniProt P02452); experiment: ex vivo ELISA, baboon plasma vWF on human collagen type I, % of pre-sample; 82D6A3 300 µg/kg, 60 min
[29] = biological target: human collagen type I (human) (UniProt P02452); experiment: ex vivo ELISA, baboon plasma vWF on human collagen type I, % of pre-sample; 82D6A3 100 µg/kg group, 0 min
[30] = biological target: human collagen type I (human) (UniProt P02452); experiment: ex vivo ELISA, baboon plasma vWF on human collagen type I, % of pre-sample; 82D6A3 300 µg/kg, 24 h
[31] = biological target: human collagen type I (human) (UniProt P02452); experiment: ex vivo ELISA, baboon plasma vWF on human collagen type I, % of pre-sample; 82D6A3 300 µg/kg, 30 min
[32] = biological target: human collagen type I (human) (UniProt P02452); experiment: ex vivo ELISA, baboon plasma vWF on human collagen type I, % of pre-sample; 82D6A3 100 µg/kg, 30 min
[33] = biological target: human collagen type I (human) (UniProt P02452); experiment: ex vivo ELISA, baboon plasma vWF on human collagen type I, % of pre-sample; 82D6A3 600 µg/kg, 24 h
[34] = biological target: human collagen type I (human) (UniProt P02452); experiment: ex vivo ELISA, baboon plasma vWF on human collagen type I, % of pre-sample; 82D6A3 600 µg/kg, 60 min
[35] = biological target: human collagen type I (human) (UniProt P02452); experiment: ex vivo ELISA, baboon plasma vWF on human collagen type I, % of pre-sample; 82D6A3 100 µg/kg, 60 min

Sequence of baboon platelet GPIb (on baboon platelets) (baboon (Papio ursinus)) (A0A096 entry or part of it limits assumed, form in doubt): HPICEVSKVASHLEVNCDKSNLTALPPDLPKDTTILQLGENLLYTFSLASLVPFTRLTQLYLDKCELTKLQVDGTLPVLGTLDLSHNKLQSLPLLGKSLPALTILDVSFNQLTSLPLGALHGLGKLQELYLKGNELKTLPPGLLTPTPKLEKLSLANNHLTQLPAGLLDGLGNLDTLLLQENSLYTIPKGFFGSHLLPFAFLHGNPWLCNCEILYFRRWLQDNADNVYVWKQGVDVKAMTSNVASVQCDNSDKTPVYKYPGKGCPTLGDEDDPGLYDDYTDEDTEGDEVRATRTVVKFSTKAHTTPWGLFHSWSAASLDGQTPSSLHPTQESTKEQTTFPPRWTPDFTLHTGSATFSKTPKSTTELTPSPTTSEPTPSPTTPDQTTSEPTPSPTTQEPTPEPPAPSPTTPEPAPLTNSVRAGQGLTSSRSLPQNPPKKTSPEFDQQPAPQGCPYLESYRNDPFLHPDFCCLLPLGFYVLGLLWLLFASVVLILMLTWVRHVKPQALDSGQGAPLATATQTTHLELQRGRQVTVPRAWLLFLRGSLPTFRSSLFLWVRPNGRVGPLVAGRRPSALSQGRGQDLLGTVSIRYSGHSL
Sequence of mouse GPIIb/IIIa (on mouse platelets) (mouse) (Q9QUM0 32-1033, chain 1 of 2): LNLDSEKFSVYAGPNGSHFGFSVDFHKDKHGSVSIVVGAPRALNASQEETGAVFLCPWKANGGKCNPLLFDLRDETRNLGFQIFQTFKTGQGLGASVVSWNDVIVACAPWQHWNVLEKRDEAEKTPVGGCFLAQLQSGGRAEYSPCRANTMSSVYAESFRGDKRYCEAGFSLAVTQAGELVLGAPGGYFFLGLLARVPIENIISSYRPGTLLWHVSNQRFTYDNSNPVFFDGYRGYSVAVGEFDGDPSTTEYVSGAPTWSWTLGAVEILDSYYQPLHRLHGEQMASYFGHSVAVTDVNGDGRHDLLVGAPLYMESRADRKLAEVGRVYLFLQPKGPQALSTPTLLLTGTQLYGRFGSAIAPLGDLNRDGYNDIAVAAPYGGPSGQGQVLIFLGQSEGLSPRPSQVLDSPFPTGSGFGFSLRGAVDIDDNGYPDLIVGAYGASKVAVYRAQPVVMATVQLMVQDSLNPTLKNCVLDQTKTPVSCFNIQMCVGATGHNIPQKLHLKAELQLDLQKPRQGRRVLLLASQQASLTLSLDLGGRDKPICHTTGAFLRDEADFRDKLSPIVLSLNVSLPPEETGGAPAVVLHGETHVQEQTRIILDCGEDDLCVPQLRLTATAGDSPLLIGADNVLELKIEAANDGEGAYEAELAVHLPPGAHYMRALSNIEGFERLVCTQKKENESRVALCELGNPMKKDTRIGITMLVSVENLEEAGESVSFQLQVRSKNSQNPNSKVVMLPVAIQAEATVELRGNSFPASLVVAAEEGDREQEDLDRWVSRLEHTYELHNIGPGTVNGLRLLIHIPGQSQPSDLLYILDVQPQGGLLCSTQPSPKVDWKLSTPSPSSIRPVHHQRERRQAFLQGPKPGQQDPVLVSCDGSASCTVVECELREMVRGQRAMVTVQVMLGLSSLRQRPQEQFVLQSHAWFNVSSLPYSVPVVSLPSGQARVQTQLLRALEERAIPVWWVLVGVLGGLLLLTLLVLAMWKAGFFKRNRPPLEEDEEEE
Sequence of mouse GPIIb/IIIa (on mouse platelets) (mouse) (O54890 26-787, chain 2 of 2, further chain): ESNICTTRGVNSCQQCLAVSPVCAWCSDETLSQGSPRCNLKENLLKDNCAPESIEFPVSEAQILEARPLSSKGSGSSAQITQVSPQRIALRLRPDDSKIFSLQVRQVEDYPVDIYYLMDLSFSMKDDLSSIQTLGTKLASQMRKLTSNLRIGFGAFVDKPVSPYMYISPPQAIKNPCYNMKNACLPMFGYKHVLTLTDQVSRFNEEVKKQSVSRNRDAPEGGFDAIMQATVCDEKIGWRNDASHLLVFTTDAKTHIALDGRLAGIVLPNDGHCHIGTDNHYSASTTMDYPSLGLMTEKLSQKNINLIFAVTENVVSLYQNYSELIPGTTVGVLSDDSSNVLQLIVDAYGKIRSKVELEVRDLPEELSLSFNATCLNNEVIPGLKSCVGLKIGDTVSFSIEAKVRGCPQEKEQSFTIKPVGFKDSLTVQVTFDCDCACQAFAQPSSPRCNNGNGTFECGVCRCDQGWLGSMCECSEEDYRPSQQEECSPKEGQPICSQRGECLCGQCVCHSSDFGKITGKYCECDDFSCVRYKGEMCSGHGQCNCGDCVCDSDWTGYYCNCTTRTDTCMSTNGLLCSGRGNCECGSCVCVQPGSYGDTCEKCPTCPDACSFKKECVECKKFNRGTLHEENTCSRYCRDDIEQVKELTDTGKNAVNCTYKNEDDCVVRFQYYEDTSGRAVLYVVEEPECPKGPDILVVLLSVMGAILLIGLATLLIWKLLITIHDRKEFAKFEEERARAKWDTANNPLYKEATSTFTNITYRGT
Sequence of human collagen type I (human) (P02452 162-1218, chain 1 of 2): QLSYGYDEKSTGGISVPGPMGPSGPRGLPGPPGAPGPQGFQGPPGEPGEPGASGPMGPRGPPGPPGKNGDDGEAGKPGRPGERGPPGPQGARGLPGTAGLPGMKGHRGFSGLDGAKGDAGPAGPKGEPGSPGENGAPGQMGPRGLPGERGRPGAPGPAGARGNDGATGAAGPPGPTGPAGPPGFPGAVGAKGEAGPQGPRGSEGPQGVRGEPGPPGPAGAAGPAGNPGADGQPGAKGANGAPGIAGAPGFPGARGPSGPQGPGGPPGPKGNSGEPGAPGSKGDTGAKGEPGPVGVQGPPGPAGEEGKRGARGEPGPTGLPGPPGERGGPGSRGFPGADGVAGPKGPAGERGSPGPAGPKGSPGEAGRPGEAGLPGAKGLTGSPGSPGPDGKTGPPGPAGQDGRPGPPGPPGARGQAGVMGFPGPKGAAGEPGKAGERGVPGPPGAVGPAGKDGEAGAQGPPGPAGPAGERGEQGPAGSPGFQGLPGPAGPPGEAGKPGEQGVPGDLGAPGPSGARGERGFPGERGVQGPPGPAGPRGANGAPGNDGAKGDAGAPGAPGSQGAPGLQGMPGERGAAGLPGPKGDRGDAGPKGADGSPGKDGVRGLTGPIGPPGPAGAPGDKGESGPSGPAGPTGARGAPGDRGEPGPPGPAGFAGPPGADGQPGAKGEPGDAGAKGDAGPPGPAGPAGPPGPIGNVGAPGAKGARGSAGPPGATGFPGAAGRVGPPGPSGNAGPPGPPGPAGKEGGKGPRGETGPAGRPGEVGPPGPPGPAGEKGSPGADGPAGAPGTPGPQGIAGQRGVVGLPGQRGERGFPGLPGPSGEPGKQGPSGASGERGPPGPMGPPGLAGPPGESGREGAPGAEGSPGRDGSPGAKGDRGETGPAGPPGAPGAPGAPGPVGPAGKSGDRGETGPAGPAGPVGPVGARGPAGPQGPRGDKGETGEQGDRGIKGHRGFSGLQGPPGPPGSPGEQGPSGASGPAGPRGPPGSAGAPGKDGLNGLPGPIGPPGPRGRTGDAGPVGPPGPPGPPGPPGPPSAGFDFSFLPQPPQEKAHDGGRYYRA
Sequence of human collagen type I (human) (P08123 80-1119, chain 2 of 2, further chain): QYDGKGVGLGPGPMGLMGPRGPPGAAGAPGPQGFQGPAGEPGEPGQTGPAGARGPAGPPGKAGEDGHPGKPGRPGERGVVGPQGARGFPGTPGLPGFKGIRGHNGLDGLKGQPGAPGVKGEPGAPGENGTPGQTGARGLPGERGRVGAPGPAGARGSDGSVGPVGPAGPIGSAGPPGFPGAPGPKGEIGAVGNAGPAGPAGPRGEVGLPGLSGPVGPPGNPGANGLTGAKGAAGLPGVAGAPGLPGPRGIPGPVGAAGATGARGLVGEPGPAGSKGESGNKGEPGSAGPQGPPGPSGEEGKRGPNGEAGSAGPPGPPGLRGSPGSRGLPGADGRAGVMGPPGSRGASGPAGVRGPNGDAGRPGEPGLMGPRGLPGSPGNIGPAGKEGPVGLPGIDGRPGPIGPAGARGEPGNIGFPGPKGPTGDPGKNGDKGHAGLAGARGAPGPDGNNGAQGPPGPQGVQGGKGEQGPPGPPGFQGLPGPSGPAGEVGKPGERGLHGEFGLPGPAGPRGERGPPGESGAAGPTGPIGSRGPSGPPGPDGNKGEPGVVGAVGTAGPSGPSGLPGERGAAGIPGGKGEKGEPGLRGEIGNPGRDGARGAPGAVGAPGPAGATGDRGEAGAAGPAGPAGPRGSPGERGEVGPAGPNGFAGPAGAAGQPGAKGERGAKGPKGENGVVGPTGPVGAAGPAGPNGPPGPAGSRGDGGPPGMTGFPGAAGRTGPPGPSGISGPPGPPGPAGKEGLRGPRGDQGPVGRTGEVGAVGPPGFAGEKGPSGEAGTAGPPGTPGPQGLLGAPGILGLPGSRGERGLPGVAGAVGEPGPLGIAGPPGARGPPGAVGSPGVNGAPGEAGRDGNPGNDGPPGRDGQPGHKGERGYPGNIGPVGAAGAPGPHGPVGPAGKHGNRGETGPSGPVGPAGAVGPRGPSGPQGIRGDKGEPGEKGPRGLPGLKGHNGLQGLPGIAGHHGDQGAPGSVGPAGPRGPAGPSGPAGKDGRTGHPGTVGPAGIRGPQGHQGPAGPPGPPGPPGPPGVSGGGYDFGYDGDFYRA

6B4 Fab fragments showed a receptor occupancy [1] of 64.8%, a receptor occupancy [2] of 12.9% and a receptor occupancy [3] of 69.3%. It also gave a receptor occupancy [4] of 45.6%, a receptor occupancy [5] of 31.3% and a receptor occupancy [6] of 28.6%. The receptor occupancy [7] was 17.1%, the receptor occupancy [8] was 34.5% and the receptor occupancy [9] was 43.9%. For the same substance, the KD50 (half saturation) [10] was 49.2 nmol/L, the receptor occupancy [11] was 79% and the % inhibition of ex vivo ristocetin-induced (1.5 mg/mL) platelet agglutination; after 160 µg/kg, time 270 min [12] was 8%. For the same substance, the % inhibition of ex vivo ristocetin-induced (1.5 mg/mL) platelet agglutination; after 640 µg/kg, time 270 min [12] was 15%, the % inhibition of ex vivo ristocetin-induced (1.5 mg/mL) platelet agglutination; after 640 µg/kg, time 24 h [12] was 7% and the % inhibition of ex vivo ristocetin-induced (1.5 mg/mL) platelet agglutination; dose 80 µg/kg, time 90 min [12] was 26%. It also gave a % inhibition of ex vivo ristocetin-induced (1.5 mg/mL) platelet agglutination; dose 160 µg/kg, time 150 min [12] of 47%, a % inhibition of ex vivo ristocetin-induced (1.5 mg/mL) platelet agglutination; dose 320 µg/kg, time 90 min [12] of 25% and a % inhibition of ex vivo ristocetin-induced (1.5 mg/mL) platelet agglutination; dose 640 µg/kg, time 150 min [12] of 80%. The IC50 of ristocetin-induced baboon platelet aggregation [12] was 40 nM, the ex vivo ristocetin-induced platelet aggregation, % of the response before injection; 600 µg/kg, 60 minutes [12] was 16.8% and the ex vivo ristocetin-induced platelet aggregation, % of the response before injection; 600 µg/kg, 150 minutes [12] was 68.8%. It also gave an ex vivo ristocetin-induced platelet aggregation, % of the response before injection; 2 mg/kg, 60 minutes [12] of 5.2%, an ex vivo ristocetin-induced platelet aggregation, % of the response before injection; 2 mg/kg, 150 minutes [12] of 19.2% and an ex vivo ristocetin-induced platelet aggregation, % of the response before injection; 4 mg/kg, 60 minutes [12] of 2%. The ex vivo ristocetin-induced platelet aggregation, % of the response before injection; 4 mg/kg, 150 minutes [12] was 16%, the receptor occupancy [13] was 84% and the receptor occupancy [14] was 6.3%.

82D6A3 F(ab) fragment (Fab) showed an IC50 [15] of 1 µg/mL and a concentration for complete inhibition of platelet deposition on human collagen type I under flow, shear rate 1300 s^-1 [16] of 10 µg/mL.

For JON/A F(ab)2 (antibody), the Receptor occupancy, % [17] was 78.4%, the Receptor occupancy, % [18] was > 95% and the Receptor occupancy, % [19] was 67.8%.

With “baboon vWF (in baboon plasma), A0A096N8H2 764-2813” the collagen binding (%) [20] was 100%, the collagen binding (%) [21] was 4% and the collagen binding (%) [22] was 3.52%. The collagen binding (%) [23] was 4%, the collagen binding (%) [24] was 4% and the collagen binding (%) [25] was 4%. It also gave a collagen binding (%) [26] of 101%, a collagen binding (%) [27] of 93% and a collagen binding (%) [28] of 4%. The collagen binding (%) [29] was 101%, the collagen binding (%) [30] was 91% and the collagen binding (%) [31] was 4%. It also gave a collagen binding (%) [32] of 64%, a collagen binding (%) [33] of 45% and a collagen binding (%) [34] of 3.5%. The collagen binding (%) [35] was 69%.

From US20090311267A1
